Data reported in PMC9458469 (The Journal of Cell Biology, 2022).
Values belong to the molecule of their own block, whether it stands above or below them.

Columns and labels:
[1] = biological target: Hsp-12.1 (purified) (C. elegans); assay: SEC
[2] = biological target: the molecule itself; assay: SEC

stoichiometry N [1]: 4 subunits
Molecule: Hsp-12.1 (purified) (natural protein)

B1: Hsp-16.1 (purified) (natural protein, C. elegans, UniProt P34696 1-145, looked up)
chain: MSLYHYFRPAQRSVFGDLMRDMAQMERQFTPVCRGSPSESSEIVNNDQKFAINLNVSQFKPEDLKINLDGHTLSIQGEQELKTEHGYSKKSFSRVILLPEDVDVGAVASNLSEDGKLSIEAPKKEAIQGRSIPIQQAPVEQKTSE
stoichiometry N [2]: ~34 subunits
